According to the supplement of paper PMC9732359:
± gives the uncertainty stated by the source.

Experiment: protein stability index of a GFP-peptide fusion (yeast GPS) (PSI 1-4); higher = more stable; sorted into four equal gates, so the index is relative within each strain
How it was run: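 Tiled 17-residue yeast protein peptides were fused downstream of GFP in a plasmid that also expresses Cherry, and the pooled library was carried in yeast. Mid-log cultures in leucine-free medium were sorted into four equal gates by GFP/Cherry fluorescence ratio, and plasmids from each gate were PCR-amplified and Illumina-sequenced, with reads assigned to strains by barcodes. The protein stability index for each peptide was each gate's read frequency times its gate number, summed.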

Sequence | protein stability index (doa10∆) | protein stability index (pdr5∆) | protein stability index (san1∆) | protein stability index (ubr1∆)
DRQIINEKMQLLKDIFA [SIR4] | 2.25 ± 0.042 | 2.64 ± 0.054 | 2.31 ± 0.058 | 1.92 ± 0.047
DRRKARKAYFTAPSSQR [RPL26A] | 2.59 ± 0.069 | 2.49 ± 0.091 | 2.76 ± 0.057 | 2.59 ± 0.068
DRTLPHFSKDDYSPESK [RPO21] | 3.07 ± 0.1 | 3.22 ± 0.074 | 2.85 ± 0.099 | 3.42 ± 0.093
DSDMLTKSHNTVQSWLC [NUT1] | 2.53 ± 0.18 | 2.63 ± 0.22 | – | 2.87 ± 0.078
DSEDEDSMKDTTDMISV [YML031W/NDC1] | 3.17 ± 0.17 | – | 3.2 ± 0.11 | 2.98 ± 0.21
DSEERDPKLEKCLNYRN [ITC1] | 2.85 ± 0.07 | 2.74 ± 0.088 | 2.71 ± 0.061 | 2.49 ± 0.038
DSENNEENSSSNGNNLP [RGR1] | 2.96 ± 0.061 | 2.96 ± 0.056 | 2.96 ± 0.055 | 3.06 ± 0.039
DSIPYPQIVKLFDISRE [ECM29] | 1.65 ± 0.065 | 1.3 ± 0.057 | 1.23 ± 0.073 | 2.08 ± 0.039
DSKLLPKNIEPPLTSQY [SWI3] | 2.89 ± 0.058 | 2.91 ± 0.049 | 2.92 ± 0.041 | 2.92 ± 0.04
DSLRKLYVDSESTSSTE [MTW1] | 2.86 ± 0.072 | 3.51 ± 0.1 | 3.16 ± 0.1 | 3 ± 0.068
DSMKYTISSLFVQLCEM [RPC82] | 1.86 ± 0.044 | 2.26 ± 0.042 | 2.15 ± 0.062 | 2.17 ± 0.043
DSNKTLLHNHLKSIESL [SMC2] | 1.87 ± 0.089 | 2.44 ± 0.095 | 1.49 ± 0.22 | 2.78 ± 0.11
DSNTTEILTSVDVLGTH [SIR4] | 2.92 ± 0.063 | 2.96 ± 0.058 | 2.93 ± 0.06 | 3.04 ± 0.036
DSSSQCIVDFTNPKLKS [YMR129W/POM152] | 2.2 ± 0.053 | 2.43 ± 0.058 | 2.33 ± 0.072 | 1.96 ± 0.044
DSSYQDIFAVNLEESSK [RET1] | – | 2.09 ± 0.25 | 2.29 ± 0.26 | –
DSVFEQNEMIDAIAVTK [RPL3] | 2.57 ± 0.095 | 2.8 ± 0.12 | 2.31 ± 0.1 | 2.51 ± 0.042
DTCAVSFDAVSDSIELL [YJR042W/NUP85] | 3.04 ± 0.12 | 3.46 ± 0.1 | 2.51 ± 0.25 | 2.65 ± 0.15
DTFDGSDLRVLSGSISE [FAS1] | 1.6 ± 0.079 | 2.34 ± 0.067 | 1.49 ± 0.14 | 1.79 ± 0.059
DTIMENPEPNKKNIQKA [IRR1] | 2.36 ± 0.25 | 2.84 ± 0.13 | 3.18 ± 0.2 | 2.99 ± 0.11
DTKIDQVNGNIRKVSND [SMC3] | 3.47 ± 0.16 | 3.07 ± 0.24 | 3 ± 0.12 | 3.27 ± 0.13
DTKPFLNKDSTNEFVGS [NUT1] | 3.09 ± 0.064 | 2.79 ± 0.054 | 2.44 ± 0.062 | 3.04 ± 0.039
DTSGLKISNSEFFNPEI [SIN4] | 3.21 ± 0.096 | 3.44 ± 0.12 | 3.1 ± 0.058 | 3.29 ± 0.074
DTSNWELSDSWRAHDSS [YGL100W/SEH1] | 3.29 ± 0.068 | 3.37 ± 0.058 | 3.4 ± 0.036 | 3.31 ± 0.037
DTTANNGKVQYFLRRQY [YJL039C/NUP192] | 2.71 ± 0.095 | 2.65 ± 0.14 | 2.83 ± 0.15 | 2.98 ± 0.091
DTVDRLIIKYQKYWESM [GAL11] | 2.73 ± 0.053 | 2.83 ± 0.065 | 2.62 ± 0.053 | 3.02 ± 0.062
DTVEEKKEEKLNIGKNF [SIR4] | 2.42 ± 0.16 | 2.71 ± 0.25 | 3.34 ± 0.2 | 2.42 ± 0.13

Sequence | protein stability index (doa10∆) | protein stability index (pdr5∆) | protein stability index (san1∆) | protein stability index (ubr1∆)
DTYKRFKYLLGVTDLFR [ISW2] | 1.85 ± 0.045 | 1.37 ± 0.052 | 1.21 ± 0.11 | 1.34 ± 0.075
DTYPYLTGEWSTKFDYP [FAS1] | 3.19 ± 0.073 | 2.96 ± 0.079 | 2.85 ± 0.063 | 2.94 ± 0.057
DVDQHGNDNNSDSNANA [SWI3] | 3.01 ± 0.045 | 3.25 ± 0.046 | 3.245 ± 0.028 | 3.249 ± 0.028
DVFNLLPNLGTPDDDEI [RPN8] | 1.96 ± 0.071 | 2.02 ± 0.079 | 1.43 ± 0.12 | 1.43 ± 0.056
DVKISNDFFDNGDNLYG [RPN4] | 2.39 ± 0.086 | 2.93 ± 0.063 | 2.67 ± 0.12 | 1.69 ± 0.057
DVKLVLASNFDNFDYFN [MED1] | 3.17 ± 0.065 | 3.19 ± 0.068 | 3.2 ± 0.07 | 3.15 ± 0.056
DVKSSLSKVFSDVLFEF [YJL039C/NUP192] | 2.82 ± 0.12 | 3.28 ± 0.071 | 2.58 ± 0.1 | 2.89 ± 0.053
DVLKENNDADKGRSYAY [RIP1] | 3.48 ± 0.13 | 3.5 ± 0.15 | 3.25 ± 0.092 | 3.03 ± 0.26
DVNDVLTKYIRSKNLIF [GRR1] | 2.68 ± 0.066 | 2.78 ± 0.08 | 2.19 ± 0.083 | 2.68 ± 0.043
DVTHTLGMLDDNKMDSV [SMC4] | 3.15 ± 0.095 | 3.03 ± 0.082 | 3.21 ± 0.049 | 3.27 ± 0.097
DVYSPEKGSWEQLSPQD [BRR2] | 3.15 ± 0.15 | – | 2.47 ± 0.24 | 3.34 ± 0.25
DWPTYVDQNPLTMHKII [SRB8] | 2.45 ± 0.09 | 2.76 ± 0.08 | 2.69 ± 0.074 | 2.91 ± 0.07
DYCRILSDIETAVNGID [YGL172W/NUP49] | 3.28 ± 0.16 | 3.15 ± 0.13 | 2.75 ± 0.17 | 2.71 ± 0.1
DYKGAKLNVVGWFHSHP [RRI1] | 2.81 ± 0.097 | 2.49 ± 0.1 | 2.38 ± 0.18 | 2.59 ± 0.061
DYKTAFSYFFESFESYH [RPN6] | 2.37 ± 0.058 | 2.77 ± 0.065 | 2.59 ± 0.067 | 2.55 ± 0.033
DYSRKQLGYGKFLILNE [NUT1] | 2.97 ± 0.2 | 2.31 ± 0.14 | – | 3.18 ± 0.22
DYVTNPDTKISSAAILG [RPN1] | 2.42 ± 0.087 | 2.43 ± 0.1 | 2.21 ± 0.17 | 1.91 ± 0.1
DYVVAPGVNREINSEMC [GRR1] | – | 3.18 ± 0.2 | 3.32 ± 0.082 | 3.13 ± 0.064
EAARICANKYMTTVSGR [RPL10] | 2.24 ± 0.24 | 2.59 ± 0.14 | 1.75 ± 0.2 | 1.93 ± 0.1
EAFIASGITDPYEMYKY [FAS2] | 1.81 ± 0.038 | 2.06 ± 0.05 | 1.73 ± 0.068 | 2.14 ± 0.045
EALIEFIYDTEKNGGLG [FAS2] | 2.52 ± 0.079 | 2.63 ± 0.076 | 2.67 ± 0.054 | 2.17 ± 0.055
EARLPSQVVWIRRLRVL [RPL19A] | 1.31 ± 0.072 | 1.63 ± 0.078 | 1.33 ± 0.11 | 1.44 ± 0.075
EATREVFGISKTSSGSY [ITC1] | 3.33 ± 0.09 | 3.09 ± 0.077 | 3.23 ± 0.068 | 3.29 ± 0.041
EDAIHIALLTLKESVEG [PRE8] | 2.94 ± 0.092 | 2.87 ± 0.085 | 2.94 ± 0.069 | 2.92 ± 0.076
EDEDDGESEKSSDVDMD [RPC53] | 3.28 ± 0.11 | 3.66 ± 0.14 | 3.29 ± 0.19 | 3.32 ± 0.094
